We go through one molecule from publication PMC9572316, “Ultrathin Covalent Organic Framework Nanosheets/Ti3C2Tx-Based Photoelectrochemical Biosensor for Efficient Detection of Prostate-Specific Antigen”.

This data set addresses prostate-specific antigen (PSA) (UniProt P07288 25-261). The experiment in a line: photoelectrochemical aptasensor (aptamer immobilized on TTPA-CONs/Ti3C2Tx/GCE); 10 ng/mL PSA; photocurrent falls from 3.6 to 1.8 uA after PSA; BSA-blocked electrode; PSA incubated 120 min at 4 °C on BSA-blocked aptamer electrode; photocurrent in 0.1 M phosphate buffer pH 7.4, room temperature, no bias (Section 2.3 states Tris-HCl pH 7.4 as optimum). The settings on record: protein: commercial.

Chain of prostate-specific antigen (PSA) (P07288 25-261): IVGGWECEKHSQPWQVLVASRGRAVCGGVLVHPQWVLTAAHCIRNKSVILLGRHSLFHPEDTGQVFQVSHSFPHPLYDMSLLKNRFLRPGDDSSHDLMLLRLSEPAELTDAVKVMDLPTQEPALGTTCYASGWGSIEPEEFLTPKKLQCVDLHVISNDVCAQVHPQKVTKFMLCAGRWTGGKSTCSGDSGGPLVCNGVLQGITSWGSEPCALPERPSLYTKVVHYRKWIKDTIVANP

B1: PSA aptamer (NH2-C6) (ssDNA)
DNA: ATTAAAGCTCGCCATCAAATAGC
modifications: 5'-NH2-C6
In the case of B1, the binding result is “binds”.
